In the supplement of paper PMC9112550, “Optimization of the antimicrobial peptide Bac7 by deep mutational scanning” (BMC Biology, 2022):

Tested on: Escherichia coli TOP10
Assay: shrunken log2 fold change of peptide-encoding DNA abundance (4.5 h post-induction vs induction); higher = less antimicrobial activity (less host growth inhibition)
Details: time post-induction: 4.5 h; library: site-saturation at positions 5, 18, 19, 20
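Note: peptides expressed intracellularly from a pBAD plasmid library in pooled LB shake-flask culture, induced with 0.3% L-arabinose, DNA abundance read by NGS, three biological replicates, DESeq2 with apeglm shrinkage.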

| Sequence | shrunken log2 fold change |
| --- | --- |
| RRIRPRPPRLPRPRPRPDYVPRP | -0.343 |
| RRIRPRPPRLPRPRPRPECNPRP | -0.0298 |
| RRIRPRPPRLPRPRPRPEDDPRP | 0.413 |
| RRIRPRPPRLPRPRPRPEENPRP | 0.163 |
| RRIRPRPPRLPRPRPRPEESPRP | -0.0202 |
| RRIRPRPPRLPRPRPRPEFFPRP | -0.00122 |
| RRIRPRPPRLPRPRPRPEFPPRP | -0.00714 |
| RRIRPRPPRLPRPRPRPEHCPRP | -0.034 |
| RRIRPRPPRLPRPRPRPEIHPRP | -0.536 |
| RRIRPRPPRLPRPRPRPEKSPRP | 0.264 |
| RRIRPRPPRLPRPRPRPELNPRP | 0.117 |
| RRIRPRPPRLPRPRPRPELYPRP | 0.0891 |
| RRIRPRPPRLPRPRPRPEMIPRP | -0.0258 |
| RRIRPRPPRLPRPRPRPEMLPRP | 0.16 |
| RRIRPRPPRLPRPRPRPEPCPRP | 0.215 |
| RRIRPRPPRLPRPRPRPEPEPRP | 0.433 |
| RRIRPRPPRLPRPRPRPEQKPRP | 0.000209 |
| RRIRPRPPRLPRPRPRPEQPPRP | 0.184 |
| RRIRPRPPRLPRPRPRPEQRPRP | 0.124 |
| RRIRPRPPRLPRPRPRPETRPRP | 0.187 |
| RRIRPRPPRLPRPRPRPEVTPRP | 0.198 |
| RRIRPRPPRLPRPRPRPEWIPRP | -0.0215 |
| RRIRPRPPRLPRPRPRPEWTPRP | 0.22 |
| RRIRPRPPRLPRPRPRPEYYPRP | -0.335 |
| RRIRPRPPRLPRPRPRPFACPRP | -0.0209 |

| Sequence | shrunken log2 fold change |
| --- | --- |
| RRIRPRPPRLPRPRPRPFADPRP | 0.174 |
| RRIRPRPPRLPRPRPRPFAMPRP | 0.0938 |
| RRIRPRPPRLPRPRPRPFAVPRP | -0.113 |
| RRIRPRPPRLPRPRPRPFCAPRP | 0.0563 |
| RRIRPRPPRLPRPRPRPFCRPRP | 0.00205 |
| RRIRPRPPRLPRPRPRPFDAPRP | 0.0141 |
| RRIRPRPPRLPRPRPRPFDIPRP | -0.395 |
| RRIRPRPPRLPRPRPRPFENPRP | -0.00884 |
| RRIRPRPPRLPRPRPRPFEYPRP | -0.0601 |
| RRIRPRPPRLPRPRPRPFFEPRP | 0.229 |
| RRIRPRPPRLPRPRPRPFFGPRP | 0.0908 |
| RRIRPRPPRLPRPRPRPFFMPRP | -0.196 |
| RRIRPRPPRLPRPRPRPFFNPRP | -0.365 |
| RRIRPRPPRLPRPRPRPFFRPRP | -0.0565 |
| RRIRPRPPRLPRPRPRPFGRPRP | -0.314 |
| RRIRPRPPRLPRPRPRPFHHPRP | -0.763 |
| RRIRPRPPRLPRPRPRPFKEPRP | -0.54 |
| RRIRPRPPRLPRPRPRPFKYPRP | -0.0171 |
| RRIRPRPPRLPRPRPRPFLPPRP | -0.0925 |
| RRIRPRPPRLPRPRPRPFNDPRP | 0.0502 |
| RRIRPRPPRLPRPRPRPFPMPRP | -0.175 |
| RRIRPRPPRLPRPRPRPFSCPRP | -0.106 |
| RRIRPRPPRLPRPRPRPFTEPRP | -0.649 |
| RRIRPRPPRLPRPRPRPFWNPRP | -0.478 |
| RRIRPRPPRLPRPRPRPFWTPRP | -0.0762 |

| Sequence | shrunken log2 fold change |
| --- | --- |
| RRIRPRPPRLPRPRPRPFYAPRP | 0.02 |
| RRIRPRPPRLPRPRPRPFYKPRP | -0.25 |
| RRIRPRPPRLPRPRPRPFYVPRP | -0.459 |
| RRIRPRPPRLPRPRPRPFYYPRP | -0.838 |
| RRIRPRPPRLPRPRPRPGAAPRP | 0.552 |
| RRIRPRPPRLPRPRPRPGAFPRP | 0.293 |
| RRIRPRPPRLPRPRPRPGAPPRP | 0.536 |
| RRIRPRPPRLPRPRPRPGCCPRP | 0.343 |
| RRIRPRPPRLPRPRPRPGCDPRP | 0.309 |
| RRIRPRPPRLPRPRPRPGCEPRP | 0.113 |
| RRIRPRPPRLPRPRPRPGCQPRP | -0.0622 |
| RRIRPRPPRLPRPRPRPGDMPRP | 0.00271 |
| RRIRPRPPRLPRPRPRPGDPPRP | 0.364 |
| RRIRPRPPRLPRPRPRPGEEPRP | 0.359 |
| RRIRPRPPRLPRPRPRPGFYPRP | -0.421 |
| RRIRPRPPRLPRPRPRPGGDPRP | 0.496 |
| RRIRPRPPRLPRPRPRPGGEPRP | 0.601 |
| RRIRPRPPRLPRPRPRPGHVPRP | 0.564 |
| RRIRPRPPRLPRPRPRPGICPRP | -0.0417 |
| RRIRPRPPRLPRPRPRPGILPRP | -0.557 |
| RRIRPRPPRLPRPRPRPGLAPRP | 0.841 |
| RRIRPRPPRLPRPRPRPGLVPRP | 0.287 |
| RRIRPRPPRLPRPRPRPGMNPRP | -0.0398 |
| RRIRPRPPRLPRPRPRPGMQPRP | 0.515 |
| RRIRPRPPRLPRPRPRPGTAPRP | 0.163 |

| Sequence | shrunken log2 fold change |
| --- | --- |
| RRIRPRPPRLPRPRPRPGTCPRP | 0.182 |
| RRIRPRPPRLPRPRPRPGVLPRP | 0.219 |
| RRIRPRPPRLPRPRPRPGYQPRP | -0.0523 |
| RRIRPRPPRLPRPRPRPHAYPRP | -0.317 |
| RRIRPRPPRLPRPRPRPHCHPRP | -0.0394 |
| RRIRPRPPRLPRPRPRPHEHPRP | 0.0125 |
| RRIRPRPPRLPRPRPRPHEIPRP | -0.192 |
| RRIRPRPPRLPRPRPRPHFHPRP | -0.191 |
| RRIRPRPPRLPRPRPRPHFWPRP | 0.482 |
| RRIRPRPPRLPRPRPRPHHAPRP | -0.125 |
| RRIRPRPPRLPRPRPRPHKCPRP | -0.19 |
| RRIRPRPPRLPRPRPRPHKLPRP | -0.109 |
| RRIRPRPPRLPRPRPRPHKRPRP | 0.0853 |
| RRIRPRPPRLPRPRPRPHLNPRP | -0.517 |
| RRIRPRPPRLPRPRPRPHLTPRP | 0.185 |
| RRIRPRPPRLPRPRPRPHMTPRP | -0.47 |
| RRIRPRPPRLPRPRPRPHNDPRP | -0.566 |
| RRIRPRPPRLPRPRPRPHNFPRP | 0.0735 |
| RRIRPRPPRLPRPRPRPHPIPRP | 0.0162 |
| RRIRPRPPRLPRPRPRPHPMPRP | -0.0882 |
| RRIRPRPPRLPRPRPRPHQLPRP | 0.0761 |
| RRIRPRPPRLPRPRPRPHREPRP | -0.176 |
| RRIRPRPPRLPRPRPRPHRKPRP | -0.0741 |
| RRIRPRPPRLPRPRPRPHRMPRP | -0.465 |
| RRIRPRPPRLPRPRPRPHSEPRP | -0.0259 |

| Sequence | shrunken log2 fold change |
| --- | --- |
| RRIRPRPPRLPRPRPRPHSIPRP | -0.418 |
| RRIRPRPPRLPRPRPRPHTHPRP | -0.434 |
| RRIRPRPPRLPRPRPRPHYLPRP | -0.906 |
| RRIRPRPPRLPRPRPRPHYRPRP | -0.112 |
| RRIRPRPPRLPRPRPRPHYWPRP | -0.41 |
| RRIRPRPPRLPRPRPRPIAEPRP | -0.0633 |
| RRIRPRPPRLPRPRPRPIAFPRP | -0.00102 |
| RRIRPRPPRLPRPRPRPICHPRP | -0.0574 |
| RRIRPRPPRLPRPRPRPIDNPRP | -0.15 |
| RRIRPRPPRLPRPRPRPIEKPRP | 0.0388 |
| RRIRPRPPRLPRPRPRPIELPRP | -0.0296 |
| RRIRPRPPRLPRPRPRPIHPPRP | 0.172 |
| RRIRPRPPRLPRPRPRPIHQPRP | -0.115 |
| RRIRPRPPRLPRPRPRPIHYPRP | -0.967 |
| RRIRPRPPRLPRPRPRPIIEPRP | -0.138 |
| RRIRPRPPRLPRPRPRPIKWPRP | 0.0716 |
| RRIRPRPPRLPRPRPRPILFPRP | -0.124 |
| RRIRPRPPRLPRPRPRPILTPRP | -0.211 |
| RRIRPRPPRLPRPRPRPIMHPRP | -0.0526 |
| RRIRPRPPRLPRPRPRPIMNPRP | -0.799 |
| RRIRPRPPRLPRPRPRPIMSPRP | 0.0779 |
| RRIRPRPPRLPRPRPRPINAPRP | -0.292 |
| RRIRPRPPRLPRPRPRPINLPRP | -0.994 |
| RRIRPRPPRLPRPRPRPINSPRP | -0.236 |
| RRIRPRPPRLPRPRPRPIPHPRP | -0.163 |

| Sequence | shrunken log2 fold change |
| --- | --- |
| RRIRPRPPRLPRPRPRPIPKPRP | 0.28 |
| RRIRPRPPRLPRPRPRPIPRPRP | 0.449 |
| RRIRPRPPRLPRPRPRPIQCPRP | 0.0062 |
| RRIRPRPPRLPRPRPRPIQEPRP | -0.019 |
| RRIRPRPPRLPRPRPRPIQRPRP | 0.364 |
| RRIRPRPPRLPRPRPRPIRCPRP | 0.125 |
| RRIRPRPPRLPRPRPRPIRNPRP | -0.0919 |
| RRIRPRPPRLPRPRPRPISGPRP | -0.154 |
| RRIRPRPPRLPRPRPRPISHPRP | -0.118 |
| RRIRPRPPRLPRPRPRPISPPRP | -0.115 |
| RRIRPRPPRLPRPRPRPISWPRP | -0.00365 |
| RRIRPRPPRLPRPRPRPIWSPRP | 0.0653 |
| RRIRPRPPRLPRPRPRPKAQPRP | -0.155 |
| RRIRPRPPRLPRPRPRPKCCPRP | 0.228 |
| RRIRPRPPRLPRPRPRPKCVPRP | 0.0688 |
| RRIRPRPPRLPRPRPRPKDFPRP | -0.141 |
| RRIRPRPPRLPRPRPRPKDQPRP | 0.111 |
| RRIRPRPPRLPRPRPRPKEGPRP | -0.00237 |
| RRIRPRPPRLPRPRPRPKESPRP | 0.13 |
| RRIRPRPPRLPRPRPRPKFIPRP | -0.308 |
| RRIRPRPPRLPRPRPRPKFLPRP | 0.0917 |
| RRIRPRPPRLPRPRPRPKFSPRP | -0.125 |
| RRIRPRPPRLPRPRPRPKGHPRP | 0.106 |
| RRIRPRPPRLPRPRPRPKHSPRP | -0.155 |
| RRIRPRPPRLPRPRPRPKKWPRP | -0.0589 |
